Experimental data published in patent US5985836A, “Alpha-1 proteinase inhibitor binding peptides” (Bayer Corporation, priority 1998, dated 1999).
Ends that are not written are not given here.

Columns and labels:
A1PI [1] = biological target: T1, A1PI (Homo sapiens, UniProt P01009); experiment: A1PI purification from 5 mg hSA + 1 mg A1PI on peptide column, A1PI mass balance; format: binding; settings: A1PI, 5 mg hSA + 1 mg A1PI; for Percent Eluted by Fraction, 1M NaCl / Percent Eluted by Fraction, 2% Ac. Acid / Percent Eluted by Fraction, 3M NaCl / Percent Eluted by Fraction, Flow: relative to total eluted
T1 construct: Human plasma is currently the only approved source of therapeutic AlPI
T1 sequence (P01009 25-418): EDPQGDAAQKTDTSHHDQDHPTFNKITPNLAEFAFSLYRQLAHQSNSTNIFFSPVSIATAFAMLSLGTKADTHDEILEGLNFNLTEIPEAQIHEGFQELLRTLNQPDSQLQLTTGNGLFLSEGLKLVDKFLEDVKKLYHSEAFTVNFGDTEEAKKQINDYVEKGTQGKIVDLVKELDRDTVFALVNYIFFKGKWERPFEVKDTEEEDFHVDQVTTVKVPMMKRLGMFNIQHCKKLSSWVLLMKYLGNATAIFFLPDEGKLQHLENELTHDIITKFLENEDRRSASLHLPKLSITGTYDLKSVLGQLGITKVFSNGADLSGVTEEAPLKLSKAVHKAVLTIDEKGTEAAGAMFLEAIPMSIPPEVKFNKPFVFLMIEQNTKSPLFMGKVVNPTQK
How it was run: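 Peptides on A-Totda-Toyopearl resin (0.1 mmole/g) in 0.4×5 cm columns; 5 mg hSA + 1 mg A1PI loaded at 4 °C or 20 °C with 10 min residence (17 μl/min). Steps of 1M and 3M NaCl, then 2% acetic acid; fractions quantified by immunonephelometry for mass balance.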

A1PI [2] = biological target: T1, A1PI; experiment: A1PI binding on peptide-resin column, injection of 1 mg A1PI in equilibration buffer; settings: 1 mg A1PI in equilibration buffer
How it was run: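 Peptides synthesized on A-Totda-Toyopearl chelate resin (0.1 mmole/g) packed in 0.4×5 cm columns; 1 mg A1PI injected in equilibration buffer at 4 °C or 20 °C, 865 or 523 μl/min. Flowthrough, 1M/3M NaCl washes and 2% acetic acid eluate quantified by A280 or immunonephelometry as percent of total eluted.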

haptoglobin (Hpt) = experiment: Purification from Effluent II+III, haptoglobin mass balance; format: binding, human; settings: 1 ml Eff. II+III, 4° C.
Description: Sequences 1-11 and 15 were assayed with Effluent II+III (Eff. II+III). Eff. II+III is a process intermediate in the Cohn plasma fractionation process. The feed stream contains 20% (by volume) ethanol, 20-25 mg/ml hSA and approximately 1 mg/ml AlPI. The stream also contains other proteins including anti-thrombin III (AT3), immunoglobin G (IgG), immunoglobin A (IgA), apolipoprotein alpha-1 (Apo A-1), transferrin (Trf), haptoglobin (Hpt), and alpha-1 acid glycoprotein (AAG) at concentrations ranging from 0.1-1 mg/ml.
The columns were assayed using the same technique as the hSA+AlPI experiments, allowing for a 10 minute residence time followed by a constant flow rate of 865 μl/min with step elutions of 1M NaCl, 3M NaCl, and 2% acetic acid. All experiments were conducted at 4° C. The mass balances for the injection of 1 ml Eff. […] The AlPI was enriched from 3% of the total protein in the feed to upwards of 50% in the acid eluate.

Immunoglobulin A (IgA) = experiment: Purification from Effluent II+III, IgA mass balance; format: binding, human; settings: 1 ml Eff. II+III, 4° C.
How it was run: (§1)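 First, 1 ml of the ethanolic Cohn intermediate (20% ethanol, ~1 mg/ml A1PI) is injected and held for a 10 min residence time. Columns are then eluted stepwise at a constant 865 μl/min with 1M NaCl, 3M NaCl and finally 2% acetic acid, all at 4° C.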

Immunoglobulin G (IgG) = experiment: Purification from Effluent II+III, IgG mass balance; format: binding, human; settings: 1 ml Eff. II+III, 4° C.
How it was run: as §1

A1PI [3] = biological target: T1, A1PI; experiment: Capture and elution of active A1PI with 2M urea buffer (elastase inhibition activity assay and immunonephelometry); format: binding; settings: 4° C.
A1PI [4] = biological target: T1, A1PI; experiment: Purification of A1PI from Effluent II+III on peptide column, A1PI mass balance; format: binding; settings: A1PI, 1 ml Eff. II+III, 4° C.
How it was run: as §1

[5] = biological target: T2, apolipoprotein alpha-1 (Apo A-1) (Homo sapiens, UniProt P02647); experiment: Purification from Effluent II+III, Apo A-1 mass balance; format: binding; settings: 1 ml Eff. II+III, 4° C.
T2 construct: Eff; II+III is a process intermediate in the Cohn plasma fractionation process; tissue Bayer Corporation (Clayton, N.C.); host or cells: plasma fraction: Cohn Effluent II+III
T2 sequence (P02647 19-267): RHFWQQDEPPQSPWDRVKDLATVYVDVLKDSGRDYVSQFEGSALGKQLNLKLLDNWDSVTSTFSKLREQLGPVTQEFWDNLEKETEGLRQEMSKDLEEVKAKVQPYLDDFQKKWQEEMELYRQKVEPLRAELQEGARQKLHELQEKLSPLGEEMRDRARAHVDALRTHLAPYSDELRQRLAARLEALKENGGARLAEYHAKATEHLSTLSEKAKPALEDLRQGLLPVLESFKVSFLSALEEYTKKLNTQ
How it was run: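 Peptide-ligand columns were loaded with 1 ml Cohn Effluent II+III (20% v/v ethanol, 20-25 mg/ml hSA, ~1 mg/ml A1PI, other plasma proteins at 0.1-1 mg/ml) using a 10 min residence time at 4° C. Step elutions at 865 μl/min used 1M NaCl, 3M NaCl, then 2% acetic acid, and protein mass balances were tracked across fractions.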

[6] = 20° C., * Below detection limit
[7] = * as in Tables 4, 5 (below detection limit)

## LIVHRW
A1PI [1]; 4° C., * Below detection limit
  Mass Protein per Eluate Fraction, 1M NaCl: 0.40 mg
  Mass Protein per Eluate Fraction, 2% Ac. Acid: 0.24 mg
A1PI [1]; 4° C.
  Percent Eluted by Fraction, 1M NaCl: 62%
  Percent Eluted by Fraction, 2% Ac. Acid: 38%
  Percent Eluted by Fraction, 3M NaCl: 0%
  Percent Eluted by Fraction, Flow: 0%
A1PI [1]; [6]
  Mass Protein per Eluate Fraction, 1M NaCl: 0.15 mg
  Mass Protein per Eluate Fraction, 2% Ac. Acid: 0.37 mg
  Mass Protein per Eluate Fraction, Flow: 0.34 mg
A1PI [1]; 20° C.
  Percent Eluted by Fraction, 1M NaCl: 18%
  Percent Eluted by Fraction, 2% Ac. Acid: 43%
  Percent Eluted by Fraction, 3M NaCl: 0%
  Percent Eluted by Fraction, Flow: 39%
A1PI [2]; 4° C.
  Percent A1PI Eluted by Fraction Based on Absorbance at 280 nm, 1M NaCl: 74%
  Percent A1PI Eluted by Fraction Based on Absorbance at 280 nm, 2% Acetic Acid: 26%
  Percent A1PI Eluted by Fraction Based on Absorbance at 280 nm, Flowthrough: 0%
A1PI [2]; 20° C.
  Percent A1PI Eluted by Fraction, 1M NaCl: 64%
  Percent A1PI Eluted by Fraction, 2% Acetic Acid: 36%
  Percent A1PI Eluted by Fraction, Flowthrough: 0%
Haptoglobin (Hpt)
  Percent Eluted by Fraction, 1M NaCl: 40%
  Percent Eluted by Fraction, 2% Acetic Acid: 0%
  Percent Eluted by Fraction, 3M NaCl: 0%
  Percent Eluted by Fraction, Flow: 60%
Haptoglobin (Hpt); [7]
  Mass Protein per Eluate Fraction, 1M NaCl: 0.29 mg
  Mass Protein per Eluate Fraction, Flow: 0.43 mg
Immunoglobulin A (IgA)
  Percent Eluted by Fraction, 1M NaCl: 43%
  Percent Eluted by Fraction, 2% Acetic Acid: 20%
  Percent Eluted by Fraction, 3M NaCl: 0%
  Percent Eluted by Fraction, Flow: 37%
Immunoglobulin A (IgA); [7]
  Mass Protein per Eluate Fraction, 1M NaCl: 0.18 mg
  Mass Protein per Eluate Fraction, 2% Acetic Acid: 0.08 mg
  Mass Protein per Eluate Fraction, Flow: 0.15 mg
Immunoglobulin G (IgG)
  Percent Eluted by Fraction, 1M NaCl: 0%
  Percent Eluted by Fraction, 2% Acetic Acid: 0%
  Percent Eluted by Fraction, 3M NaCl: 0%
  Percent Eluted by Fraction, Flow: 100%
Immunoglobulin G (IgG); [7]
  Mass Protein per Eluate Fraction, Flow: 0.31 mg
A1PI [3]; 1 mg A1PI, eluted with 2M urea, pH 6, elastase inhibition activity assay
  Mass A1PI in Urea Eluate (mg), Activity: 0.75 mg
A1PI [3]; 1 mg A1PI, eluted with 2M urea, pH 6, immunonephelometry
  Mass A1PI in Urea Eluate (mg), Nephelometry: 0.85 mg
A1PI [3]; mass of A1PI by activity assay relative to immunonephelometry, urea eluate
  Specific Activity: 0.88 mg/mg
A1PI [4]
  Percent Eluted by Fraction, 1M NaCl: 16%
  Percent Eluted by Fraction, 2% Acetic Acid: 25%
  Percent Eluted by Fraction, 3M NaCl: 0%
  Percent Eluted by Fraction, Flow: 59%
A1PI [4]; [7]
  Mass Protein per Eluate Fraction, 1M NaCl: 0.20 mg
  Mass Protein per Eluate Fraction, 2% Acetic Acid: 0.30 mg
  Mass Protein per Eluate Fraction, Flow: 0.71 mg
[5]
  Percent Eluted by Fraction, 1M NaCl: 0%
  Percent Eluted by Fraction, 2% Acetic Acid: 51%
  Percent Eluted by Fraction, 3M NaCl: 0%
  Percent Eluted by Fraction, Flow: 49%
[5]; [7]
  Mass Protein per Eluate Fraction, 2% Acetic Acid: 0.30 mg
  Mass Protein per Eluate Fraction, Flow: 0.28 mg
